Biological target: IGF2BP2-dRRM (Homo sapiens, UniProt Q9Y6M1 158-599)
Experiment: pull-down

Chain of IGF2BP2-dRRM (Q9Y6M1 158-599): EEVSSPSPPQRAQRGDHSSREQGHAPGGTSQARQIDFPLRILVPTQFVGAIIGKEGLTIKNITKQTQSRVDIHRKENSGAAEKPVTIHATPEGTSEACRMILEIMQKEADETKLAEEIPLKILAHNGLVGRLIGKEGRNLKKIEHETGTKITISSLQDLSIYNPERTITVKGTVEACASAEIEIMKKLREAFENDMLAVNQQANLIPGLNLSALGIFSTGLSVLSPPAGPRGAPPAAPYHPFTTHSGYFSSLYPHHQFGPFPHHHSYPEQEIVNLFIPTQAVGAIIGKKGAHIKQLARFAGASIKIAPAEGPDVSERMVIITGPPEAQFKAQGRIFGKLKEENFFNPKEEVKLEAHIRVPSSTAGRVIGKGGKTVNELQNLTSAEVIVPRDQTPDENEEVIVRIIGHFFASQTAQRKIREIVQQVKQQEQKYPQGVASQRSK

CGUCUCGGACUCGGACUGCU (ssRNA, m6A at positions 9 and 15) [ss-m6A (biotin)]: binds.
